Reference: patent US20140171623A1 (published 2014)

Legend:
[1] = molecular target: T1, human C1q (Quidel) (human, UniProt P02745 23-245; P02746 28-253; P02747 29-245); test: SPR (BIAcore 3000), IgG immobilised, soluble human C1q, equilibrium fit
T1 construct: Bought protein (Quidel, CA); In the CDC assays C1q came with normal human serum complement; also called complement protein C1q; soluble human C1q
Experimental: Protein concentrations were calculated by the bicinchoninic acid methods. The different human IgG1s were coupled to the dextran matrix of a CM5 sensor chip (Pharmacia Biosensor) using an Amine Coupling Kit as described (Johnsson et al., 1991, Anal. Biochem. 198: 268-77) at a surface density of between 4830 and 9221 RU. Excess reactive esters were quenched by injection of 70 μl of 1.0 M ethanolamine hydrochloride, pH 8.5. […] Dilutions and binding experiments were carried out in 50 mM HBS buffer containing 0.01 M HEPES pH 7.4, 0.15 M NaCl, 3 mM EDTA and 0.005% P-20. Data were collected for about […], and two 1-min pulse of 1M NaCl/50 mM NaOH were used to regenerate the surfaces. Human C1q was allowed to flow over an uncoated cell, and the sensorgrams from these blank runs subtracted from those obtained with IgG1-coupled chips.

[2] = molecular target: T2, human EphA2-Fc (human, UniProt P29317 25-534, limits assumed); test: KinExA, solution equilibrium titration with human EphA2-Fc
T2 construct: not shown: Fc part; origin and limits not described
Experimental: Protein concentrations were calculated by the BCA method. […] Coated beads were then separated from unreacted EphA2-Fc using a gentle pulse spin and blocked for approximately 2 h at room temperature with 1 M Tris, pH 8.0, bovine serum albumin 10 mg/mL. Beads were then resuspended in 30 mL of run buffer (PBS, pH 7.4-0.02% NaN₃) and packed into a column. […] The amount of free IgG in the samples was derived from the fluorescence signal obtained after the passing of Cy5-labeled goat anti-human IgG F(ab′)₂ (typically 0.5-2 μg/ml; Jackson ImmunoResearch Laboratories, West Grove, Pa.) through the column. Dissociation constants (KDs) were determined by fitting the individual equilibrium titration data to a 1:1 binding model using the KinExA Pro 1.0.3. software.

[3] = molecular target: T3, FLAG-tagged extracellular domain of human FcγRIIIA (F158 allotype) (human, UniProt P08637 17-208); test: SPR (BIAcore 3000), IgG immobilised, soluble FLAG-tagged human FcγRIIIA, equilibrium fit
T3 construct: extracellular domain; Secreted from HEK 293 cells, purified on anti-FLAG M2 agarose; also called FLAG-tagged FcγRIIIA; Flag-tagged Human FcγRIIIA; not shown: FLAG tag
Experimental: Protein concentrations were calculated by the bicinchoninic acid methods. The different human IgG1s were coupled to the dextran matrix of a CM5 sensor chip (Pharmacia Biosensor) using an Amine Coupling Kit as described (Johnsson et al., 1991, Anal. Biochem. 198: 268-77) at a surface density of between 7765 and 8385 RU. Excess reactive esters were quenched by injection of 70 μl of 1.0 M ethanolamine hydrochloride, pH 8.5. […] Dilutions and binding experiments were carried out in 50 mM HBS buffer containing 0.01 M HEPES pH 7.4, 0.15 M NaCl, 3 mM EDTA and 0.005% P-20. Data were collected for about 50 min, and one 30 sec pulse of 5 mM HCl was used to regenerate the surfaces. Flag-tagged human FcγRIIIA was allowed to flow over an uncoated cell, and the sensorgrams from these blank runs subtracted from those obtained with IgG1-coupled chips.

T1 sequence (P02745 23-245 limits assumed, chain 1 of 3): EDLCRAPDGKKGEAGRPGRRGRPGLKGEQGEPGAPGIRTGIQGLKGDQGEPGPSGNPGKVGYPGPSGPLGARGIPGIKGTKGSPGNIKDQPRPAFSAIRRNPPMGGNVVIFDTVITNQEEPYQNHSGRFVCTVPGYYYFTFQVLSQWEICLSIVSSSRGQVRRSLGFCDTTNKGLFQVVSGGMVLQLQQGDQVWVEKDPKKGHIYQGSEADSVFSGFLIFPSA
T1 sequence (P02746 28-253 limits assumed, chain 2 of 3): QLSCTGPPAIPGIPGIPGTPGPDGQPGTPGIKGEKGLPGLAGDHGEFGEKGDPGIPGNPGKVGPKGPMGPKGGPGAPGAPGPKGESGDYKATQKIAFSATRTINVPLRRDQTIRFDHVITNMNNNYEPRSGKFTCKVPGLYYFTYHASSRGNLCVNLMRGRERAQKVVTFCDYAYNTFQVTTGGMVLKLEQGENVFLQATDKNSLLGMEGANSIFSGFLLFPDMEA
T1 sequence (P02747 29-245 limits assumed, chain 3 of 3): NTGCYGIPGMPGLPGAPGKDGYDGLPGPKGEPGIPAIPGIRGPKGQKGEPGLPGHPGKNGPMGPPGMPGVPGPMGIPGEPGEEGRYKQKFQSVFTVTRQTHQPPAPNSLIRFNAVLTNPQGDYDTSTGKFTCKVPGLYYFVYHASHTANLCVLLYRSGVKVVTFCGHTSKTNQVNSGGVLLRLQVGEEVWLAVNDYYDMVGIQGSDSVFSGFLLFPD
T2 sequence (P29317 25-534 limits assumed): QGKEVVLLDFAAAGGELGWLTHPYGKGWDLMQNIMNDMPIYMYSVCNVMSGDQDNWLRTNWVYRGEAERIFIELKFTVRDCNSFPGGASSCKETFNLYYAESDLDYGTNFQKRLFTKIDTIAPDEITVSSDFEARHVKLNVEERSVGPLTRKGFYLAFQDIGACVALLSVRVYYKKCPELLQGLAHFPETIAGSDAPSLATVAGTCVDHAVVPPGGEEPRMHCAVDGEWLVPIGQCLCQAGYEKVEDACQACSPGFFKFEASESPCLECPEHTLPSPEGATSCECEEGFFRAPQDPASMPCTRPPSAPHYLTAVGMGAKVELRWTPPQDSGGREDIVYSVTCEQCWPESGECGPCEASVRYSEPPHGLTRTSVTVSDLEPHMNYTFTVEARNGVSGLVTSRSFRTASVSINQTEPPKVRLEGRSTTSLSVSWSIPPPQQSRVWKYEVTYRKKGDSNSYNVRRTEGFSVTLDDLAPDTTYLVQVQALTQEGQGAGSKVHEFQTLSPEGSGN
T3 sequence (P08637 17-208): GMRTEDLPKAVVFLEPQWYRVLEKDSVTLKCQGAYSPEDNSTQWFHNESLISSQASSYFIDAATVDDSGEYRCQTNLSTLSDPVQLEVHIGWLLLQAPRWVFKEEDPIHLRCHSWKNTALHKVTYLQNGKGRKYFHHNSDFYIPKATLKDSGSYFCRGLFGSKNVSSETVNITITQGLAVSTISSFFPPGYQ

Row | Binder | Kd [1] [nM] | Kd [2] [nM] | Kd [3] [nM]
1 | mAb 12G3H11 (wild type hinge), human anti-human EphA2 IgG1 (antibody, domain: CH1;domain: lower hinge, CH2, CH3; Human IgG1/κ from HEK 293 cells; also called Wild type (12G3H11); not shown: human κ chain constant region) heavy: not shown light: DIQMTQSPSSLSASVGDRVTITCRASQSISNNLHWYQQKPGKAPKLLIKYAFQSISGVPSRFSGSGSGTDFTFTISSLQPEDFATYYCQQANSWPLTFGGGTKVEIK | 89 | 0.0011 | 6050
2 | 12G3H11 Fc variant 13-2 AA Delete Mid (antibody, human IgG1, domain: CH1;domain: lower hinge, CH2, CH3; Human IgG1/κ; not shown: human κ chain constant region) heavy: not shown light: DIQMTQSPSSLSASVGDRVTITCRASQSISNNLHWYQQKPGKAPKLLIKYAFQSISGVPSRFSGSGSGTDFTFTISSLQPEDFATYYCQQANSWPLTFGGGTKVEIK |  | 0.0017 | 
3 | 12G3H11 Fc variant 5-GGG Insert Low (antibody, human IgG1, domain: CH1;domain: lower hinge, CH2, CH3; Human IgG1/κ; not shown: human κ chain constant region) heavy: not shown light: DIQMTQSPSSLSASVGDRVTITCRASQSISNNLHWYQQKPGKAPKLLIKYAFQSISGVPSRFSGSGSGTDFTFTISSLQPEDFATYYCQQANSWPLTFGGGTKVEIK | 282 | 0.0008 | 
4 | 12G3H11 Fc variant 1-CD Invert (antibody, human IgG1, domain: CH1;domain: lower hinge, CH2, CH3; Human IgG1/κ; not shown: human κ chain constant region) heavy: not shown light: DIQMTQSPSSLSASVGDRVTITCRASQSISNNLHWYQQKPGKAPKLLIKYAFQSISGVPSRFSGSGSGTDFTFTISSLQPEDFATYYCQQANSWPLTFGGGTKVEIK | 92 |  | 
5 | 12G3H11 Fc variant 19-PP to WW Low (antibody, human IgG1, domain: CH1;domain: lower hinge, CH2, CH3; Human IgG1/κ; not shown: human κ chain constant region) heavy: not shown light: DIQMTQSPSSLSASVGDRVTITCRASQSISNNLHWYQQKPGKAPKLLIKYAFQSISGVPSRFSGSGSGTDFTFTISSLQPEDFATYYCQQANSWPLTFGGGTKVEIK | 274 |  | 
6 | 12G3H11 Fc variant 17-DKTHT to PPPPP (antibody, human IgG1, domain: CH1;domain: lower hinge, CH2, CH3; Human IgG1/κ; not shown: human κ chain constant region) heavy: not shown light: DIQMTQSPSSLSASVGDRVTITCRASQSISNNLHWYQQKPGKAPKLLIKYAFQSISGVPSRFSGSGSGTDFTFTISSLQPEDFATYYCQQANSWPLTFGGGTKVEIK | 91 |  | 
7 | 12G3H11 Fc variant 14-T to C Middle (antibody, human IgG1, domain: CH1;domain: lower hinge, CH2, CH3; Human IgG1/κ; not shown: human κ chain constant region) heavy: not shown light: DIQMTQSPSSLSASVGDRVTITCRASQSISNNLHWYQQKPGKAPKLLIKYAFQSISGVPSRFSGSGSGTDFTFTISSLQPEDFATYYCQQANSWPLTFGGGTKVEIK |  | 0.0072 | 
8 | 12G3H11 Fc variant 18-EPKS to PPPP (antibody, human IgG1, domain: CH1;domain: lower hinge, CH2, CH3; Human IgG1/κ; not shown: human κ chain constant region) heavy: not shown light: DIQMTQSPSSLSASVGDRVTITCRASQSISNNLHWYQQKPGKAPKLLIKYAFQSISGVPSRFSGSGSGTDFTFTISSLQPEDFATYYCQQANSWPLTFGGGTKVEIK | 75 | 0.0015 | 
9 | 12G3H11 Fc variant 20-KT to WW Mid (antibody, human IgG1, domain: CH1;domain: lower hinge, CH2, CH3; Human IgG1/κ; not shown: human κ chain constant region) heavy: not shown light: DIQMTQSPSSLSASVGDRVTITCRASQSISNNLHWYQQKPGKAPKLLIKYAFQSISGVPSRFSGSGSGTDFTFTISSLQPEDFATYYCQQANSWPLTFGGGTKVEIK | 61 |  | 
10 | 12G3H11 Fc variant 8-PP to GG Low (antibody, human IgG1, domain: CH1;domain: lower hinge, CH2, CH3; Human IgG1/κ; not shown: human κ chain constant region) heavy: not shown light: DIQMTQSPSSLSASVGDRVTITCRASQSISNNLHWYQQKPGKAPKLLIKYAFQSISGVPSRFSGSGSGTDFTFTISSLQPEDFATYYCQQANSWPLTFGGGTKVEIK | 155 |  | 6400
11 | 12G3H11 Fc variant 6-GGG Insert High (antibody, human IgG1, domain: CH1;domain: lower hinge, CH2, CH3; Human IgG1/κ; not shown: human κ chain constant region) heavy: not shown light: DIQMTQSPSSLSASVGDRVTITCRASQSISNNLHWYQQKPGKAPKLLIKYAFQSISGVPSRFSGSGSGTDFTFTISSLQPEDFATYYCQQANSWPLTFGGGTKVEIK |  | 0.0027 | 
